Results from patent publication US20070111265A1, “Ligands for mineralocorticoid receptor (MR) and methods for screening for or designing MR ligands” (Van Andel Research Institute, priority 2005, published 2007).

T1: human MR LBD (residues 727-984) containing a C808S mutation, 6xHis-GST fusion protein (human), P08235
T1 chain: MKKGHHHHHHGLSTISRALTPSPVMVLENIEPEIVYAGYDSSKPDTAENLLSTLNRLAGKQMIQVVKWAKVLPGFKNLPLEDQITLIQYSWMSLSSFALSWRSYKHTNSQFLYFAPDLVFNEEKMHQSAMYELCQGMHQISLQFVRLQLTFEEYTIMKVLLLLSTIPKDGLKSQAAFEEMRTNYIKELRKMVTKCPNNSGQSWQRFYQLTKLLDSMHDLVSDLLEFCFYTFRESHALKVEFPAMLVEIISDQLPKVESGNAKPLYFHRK


Target: T1, human MR LBD (residues 727-984) …
Test: AlphaScreen peptide competition; corticosterone
Settings: modification not given

How did the IC50 turn out when SKDHQLLRYLLDKDE [SRC1-3] was run?
The IC50 was 1.6 µM.

With KENNALLRYLLDRDD [SRC3-3] as the binder, how does the IC50 read?
Its IC50 is 1.4 µM.

For TERHKILHRLLQESS [SRC1-2], which IC50 is on record?
The IC50 was 1.4 µM.

How did the IC50 turn out when KEKHKILHRLLQDSS [SRC2-2] was run?
Its IC50 is 2.2 µM.

How did the IC50 turn out when QEKHRILHKLLQNGN [SRC3-2] was run?
The IC50 was 4.6 µM.
